Results reported in patent US10111948B2, “Synthetic hapten carrier compositions and methods” (TRIA BIOSCIENCE CORP., priority 2014, dated 2018).

B1: TCC^Nic4: trimeric coiled coil of three SEQ ID NO:13 monomers conjugated with average 4 nicotine 6-hexanoic acid per monomer (conjugate)
chain: KKIEKRIEKIEKRIKKIEKRIKKIEKRIKKIEKRIKKAKFVAAWTLKAAAYQNPTTYISVK
modifications: also: trimer (trimeric coiled coil of three monomers), ~4 nicotine 6-hexanoic acid haptens per monomer (sites not given here)

Legend:
[1] = test system: antisera isolated from TCC^Nic4 immunized mice; test: competitive ELISA for specificity of nicotine binding by antisera
Method: FIG. 6 presents data showing specificity of nicotine binding by antisera isolated from TCC^Nic4 immunized mice determined by competitive ELISA for nicotine, cotinine, and acetylcholine.
Antibody affinity and the nicotine binding capacity of the anti-nicotine antibodies evoked in TCC^Nic4-immunized mice were examined. Mice were immunized with 2.5 μg TCC^Nic4 on days 0, 14, and 146, and antisera were obtained. Nicotine binding to antisera isolated from TCC^Nic4 immunized mice was determined by competitive ELISA for nicotine, cotinine, and acetylcholine.

mice = test: nicotine distribution in serum/plasma and brain after nicotine injection in immunized mice; format: in vivo
Method: FIGS. 9A-C show the levels of nicotine in sera and brains of mice (n=5/group) immunized with PBS, TCC^Nic4 with and without alum and GLA-SE adjuvants, or KLH conjugated to nicotine (KLH^Nic22) with and without alum and GLA-SE adjuvants. Immunized mice were injected with a dose of nicotine tartrate equivalent to the nicotine in 3 cigarettes (1.2 μg). Five minutes later the mice were sacrificed, tissues removed, and the amount of nicotine in (A) sera and (B) brain were measured by mass spectrometry. (C) The calculated percent inhibition of nicotine entry into the brain is shown.
FIGS. 10A-B show comparative antibody responses between TCC^Nic4 and KLH^Nic100. C57Bl/6 mice were immunized with each conjugate in the absence and presence of GLA-SE adjuvant. […]
To test antibody function, TCC^Nic4 or KLH^Nic22 (non-adjuvanted; +Alum; or +GLA-SE) immunized mice were injected with free nicotine equivalent to 3 cigarettes. […] Nicotine was extracted from the plasma and brain tissues and then quantified by LC/MS. The amounts of nicotine in plasma (ng/ml) and brain (ng/g) were determined. […] Data were analyzed using GraphPad Prism (San Diego, Calif.). Statistically significant differences between 2 groups were calculated by Student's 2-tailed t-test on log transformed data and between 3 or more groups by 1-factor analysis of variance (ANOVA) followed by post-hoc analysis. […]

[2] = serum nicotine binding capacity (inhibition RIA); details: serum of immunized mice
Method: Kd values were used to calculate total antibody concentrations according to the law of mass action equation: Kd=[Nic][Ig]/[Nic−Ig].
Plasma was assayed for nicotine binding capacity at various times following immunization. Plasma aliquots were spiked with increasing nicotine levels (0.0001-10 μM) (serum nicotine levels in heavy smokers is 100 ng/ml or 0.617 μM) and then subjected to inhibition RIA (with H^3-Nicotine as the tracer and non-radiolabeled nicotine as the inhibitor) to calculate the total nicotine binding IgG in serum (see, e.g., Moreno et al., 2010, Mol. Pharm. 7:431-41; Muller, 1983, Methods Enzymol. 92:589-601). Immobilized protein A was used to capture IgGs from the serum to separate them from free nicotine. Aliquots of both the protein A eluate and the serum supernatant were subjected to liquid scintillation counting to quantify the amount of tracer in each fraction.

C57BL/6 mice [3] = test: nicotine-induced hypoactivity (locomotor activity, open field); format: in vivo; details: 10 daily 10 μg nicotine injections, 7 day rest, 10 μg challenge
Method: C57Bl/6 mice were immunized with TCC^Nic4 and KLH^Nic100 in the absence and presence of GLA-SE adjuvant. Immunized mice were sensitized to nicotine with 10 daily injections (10 μg). Following a 7 day rest period, mice were challenged with nicotine (10 μg), and locomoter activity was monitored using infrared beam-equipped open field chambers. The PBS-immunized group was not challenged with nicotine.
Furthermore, mice immunized with TCC^Nic4 and KLH^Nic100 with and without GLA-SE as described above were evaluated for nicotine-induced hypoactive behavior with nicotine challenges as described in Rosenberg et al. (2013, Hum. Gene Ther. 24:595-603). Immunized mice were sensitized with 10 daily injections of 10 μg of nicotine. After a 7 day rest period, the mice were then challenged with 10 μg of nicotine, and locomotor activity was monitored using infrared beam-equipped open field chambers. The mice immunized with PBS were not challenged with nicotine.

[4] = relative Kd of serum IgG by competitive ELISA; format: binding, mice
Method: FIGS. 7A-B illustrate antibody avidities of antisera from mice immunized with TCC conjugated to nicotine.
Relative Kd values of serum IgG were determined by competitive ELISA. Dilutions of antiserum were prepared and incubated with soluble nicotine (0.0001-100 μM). After equilibrium was achieved, binding to bovine serum albumin (BSA) conjugated to nicotine was measured. […] Each sample was assayed in triplicate wells along with standard control sera, and the mean midpoint and endpoint titers (+/−SEM) were determined.

C57BL/6 mice [5] = test: anti-nicotine antibody titers by ELISA in immunized C57BL/6 mice; format: in vivo
Method: FIGS. 3A-B illustrate anti-nicotine antibody titers as measured by ELISA. C57Bl/6 mice (n=5/group) were immunized (days 0, 14, and 146) with 2.5 μg of the trimeric coiled-coil peptide vaccine comprising peptide monomers with 16 lysines conjugated to an average of 4 nicotines per monomer. Control groups were administered KLH-Nic22 or PBS. Vaccines were formulated with (A) Alum adjuvant or (B) GLA-SE adjuvant. Sera were collected at the indicated times and assayed for anti-nicotine antibodies by ELISA.
FIG. 5 illustrates titer to nicotine in mice (C57Bl/6 mice (n=5/group)) immunized with the indicated doses of TCC^Nic4 plus GLA-SE adjuvant. Day 35 sera were assayed for anti-nicotine antibodies by ELISA.
FIGS. 10A-B show comparative antibody responses between TCC^Nic4 and KLH^Nic100. C57Bl/6 mice were immunized with each conjugate in the absence and presence of GLA-SE adjuvant. (A) Serum was assayed for anti-nicotine antibody responses by ELISA. (B) Data showing serum sequestration of nicotine. Percent inhibition of nicotine entry into the brain is indicated.
Trimeric coiled coil structures comprising three peptide monomers having an amino acid sequence set forth in SEQ ID NO:13 were conjugated as described above with nicotine to provide constructs comprising an average of 0.6, 4, and 14 nicotine molecules per monomeric peptide. […] Sera were collected periodically for approximately 20 weeks after the primary immunization, and anti-nicotine antibody titers were determined by ELISA.
In the same experiment, groups of mice were immunized with three non-TCC nicotine carriers, FGK4.5^nic19 and IgG2^nic17 and KLH^nic22. […] Sera were collected and measured for anti-nicotine and anti-carrier antibody titers by ELISA using, respectively, nicotine conjugated BSA, non-conjugated trimeric coiled-coil peptide, and non-conjugated KLH, FGK4.5, and IgG2 carriers used in the respective vaccine composition. Each sample was assayed in triplicate wells along with standard control sera, and the mean midpoint and endpoint titers (+/−SEM) were determined. […]

| Molecule | binding by antibodies induced by TCC^Nic4 immunization ([1]; competitive ELISA) | IC50 relative to nicotine ([1]; competitor in competitive ELISA) [fold] | nicotine in sera and brain, immunogen compared with KLH^Nic22 (mice; combined with either adjuvant (Alum or GLA-SE), 5 min after nicotine injection) | circulating nicotine prevented from entering the brain (mice; plus GLA-SE adjuvant, nicotine dose equivalent to 3 cigarettes, 5 min) | nicotine binding capacity compared with control KLH conjugate [2] | hypoactivity behavior after nicotine challenge (C57BL/6 mice [3]; non-adjuvanted vaccine) | prevention of nicotine sensitization and hypoactivity behavior (C57BL/6 mice [3]; with GLA-SE adjuvant) | antibody affinity compared to KLH^Nic22 ([4]; in the absence of adjuvant) | antibody affinity relative to antibodies evoked by KLH^Nic22 ([4]; in the presence of GLA-SE adjuvant) | Kd ([4]; in the presence of GLA-SE adjuvant, read-out: affinity of the antibodies evoked by immunization (Kd)) [nM] | specificity of antibodies induced by immunization ([1]; 2.5 μg on days 0, 14, 146) | anti-nicotine antibody titer compared with KLH^Nic22 (C57BL/6 mice [5]; 2.5 μg on days 0, 14, 146, FIG. 3) | anti-nicotine antibody titers (C57BL/6 mice [5]; adjuvanted (Alum or GLA-SE), 2.5 μg on days 0, 14, 146, sera for approx. 20 weeks) | dose achieving the maximum anti-nicotine antibody response (C57BL/6 mice [5]; adjuvanted with GLA-SE, doses 0.1, 0.5, 1, 2.5 μg, day 35 sera) [ng] |
| --- | --- | --- | --- | --- | --- | --- | --- | --- | --- | --- | --- | --- | --- | --- |
| CN1C(=O)CC[C@H]1c1cccnc1 [cotinine] | did not bind physiological concentrations | 1000 |  |  |  |  |  |  |  |  |  |  |  |  |
| B1 |  |  | superior immunogen | greater than 90% | significantly larger | hypoactivity observed | appeared equivalent in preventing nicotine sensitization and subsequent hypoactivity behavior | higher affinity antibodies | an order of magnitude greater | ~1 | nicotine-specific | consistently greater | robust antibody titers | ≤ 100 |
